{"source": "patent US20050084489A1", "about": "“Methods of preventing or treating disorders by administering and integrin alphanubeta3 antagonist in combination with an HMG-CoA reductase inhibitor or a bisphosphonate” (priority 2002, published 2005)", "key": {"mouse integrin αVβ3": {"biological_target": "T1, mouse integrin αVβ3 (Mus musculus, UniProt O54890)", "T1 sequence (O54890 26-787)": "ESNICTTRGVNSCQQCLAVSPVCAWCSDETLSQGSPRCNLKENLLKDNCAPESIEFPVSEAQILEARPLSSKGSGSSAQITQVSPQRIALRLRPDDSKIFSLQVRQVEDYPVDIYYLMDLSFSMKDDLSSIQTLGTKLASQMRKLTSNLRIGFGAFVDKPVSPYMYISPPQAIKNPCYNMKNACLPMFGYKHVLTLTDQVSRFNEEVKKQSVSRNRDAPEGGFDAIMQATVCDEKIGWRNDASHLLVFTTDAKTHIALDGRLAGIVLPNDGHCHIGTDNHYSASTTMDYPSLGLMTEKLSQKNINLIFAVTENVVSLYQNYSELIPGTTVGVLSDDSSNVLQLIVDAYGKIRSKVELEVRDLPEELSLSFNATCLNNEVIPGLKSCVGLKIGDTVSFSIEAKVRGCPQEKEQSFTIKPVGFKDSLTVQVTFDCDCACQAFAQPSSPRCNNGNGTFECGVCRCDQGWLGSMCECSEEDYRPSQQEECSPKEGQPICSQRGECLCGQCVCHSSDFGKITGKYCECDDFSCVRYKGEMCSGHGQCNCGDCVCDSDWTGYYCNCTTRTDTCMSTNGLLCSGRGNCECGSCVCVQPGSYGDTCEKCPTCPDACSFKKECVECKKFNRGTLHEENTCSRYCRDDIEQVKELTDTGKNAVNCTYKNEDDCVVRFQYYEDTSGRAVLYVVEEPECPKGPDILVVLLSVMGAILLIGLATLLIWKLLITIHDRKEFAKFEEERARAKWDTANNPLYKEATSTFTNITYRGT", "T1 sequence (P43406 31-885 partner limits assumed)": "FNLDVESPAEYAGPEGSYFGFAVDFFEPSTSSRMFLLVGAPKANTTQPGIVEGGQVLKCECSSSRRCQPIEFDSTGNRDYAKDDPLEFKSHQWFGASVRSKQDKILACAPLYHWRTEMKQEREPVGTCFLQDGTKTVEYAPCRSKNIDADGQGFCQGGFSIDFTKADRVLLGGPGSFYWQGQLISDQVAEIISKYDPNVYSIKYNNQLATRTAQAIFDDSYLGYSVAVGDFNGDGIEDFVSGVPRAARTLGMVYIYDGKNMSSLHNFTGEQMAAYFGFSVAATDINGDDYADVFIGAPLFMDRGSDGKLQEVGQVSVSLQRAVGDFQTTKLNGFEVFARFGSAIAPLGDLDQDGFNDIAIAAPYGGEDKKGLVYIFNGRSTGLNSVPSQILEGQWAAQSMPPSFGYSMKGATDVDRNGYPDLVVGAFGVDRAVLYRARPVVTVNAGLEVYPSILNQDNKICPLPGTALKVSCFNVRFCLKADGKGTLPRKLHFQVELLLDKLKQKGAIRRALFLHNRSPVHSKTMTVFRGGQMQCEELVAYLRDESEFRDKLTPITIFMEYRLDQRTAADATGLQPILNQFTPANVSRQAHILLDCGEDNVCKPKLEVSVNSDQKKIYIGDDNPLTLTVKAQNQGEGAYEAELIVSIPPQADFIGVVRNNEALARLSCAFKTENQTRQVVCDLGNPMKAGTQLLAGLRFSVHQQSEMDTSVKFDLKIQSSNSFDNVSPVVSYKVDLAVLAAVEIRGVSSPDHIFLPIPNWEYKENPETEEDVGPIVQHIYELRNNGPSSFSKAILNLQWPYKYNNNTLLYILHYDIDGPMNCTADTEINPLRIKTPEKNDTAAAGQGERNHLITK", "T1 sequence (P43406 887-1044 partner limits assumed)": "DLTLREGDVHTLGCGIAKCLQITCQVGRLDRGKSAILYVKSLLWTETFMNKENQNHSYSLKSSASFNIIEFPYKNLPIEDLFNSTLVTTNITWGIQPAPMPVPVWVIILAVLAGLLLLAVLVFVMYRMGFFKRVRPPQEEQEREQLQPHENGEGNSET", "assay": "Antibody binding to wild type mouse integrin αVβ3", "source_text": "(§1) The invention encompasses methods for identifying antagonists that are immunospecific for integrin αVβ3, particularly for antibodies that specifically bind to the same epitope as VITAXIN® and/or LM609. […] In certain embodiments, amino acid substitutions are made in the subunits of integrin αVβ3, for example to change the ligand specificity of the integrin αVβ3 and/or disrupt the heterodimerization of the subunit chains. Preferably the integrin αVβ3 is human. In specific embodiments, such amino acid substitutions disrupt the specific interaction of certain antagonists of integrin αVβ3 with a particular integrin αVβ3 epitope. In a preferred embodiment, the amino acid substitutions are made within regions of an integrin subunit that confers ligand binding specificity, preferably ligand binding specificity of LM609 and/or VITAXIN®, particularly residues 164-202 of human β3. Alternatively, mouse β chain residues corresponding to residues 164-202 of the human β3 chain are replaced with the residues 164-202 of the human β3 chain. Such mouse-human chimeras can be used to screen for antagonists that bind to the region 164-202 of human β3 but not to mouse integrin αVβ3.\n(§2) In addition, the invention provides methods for identifying monoclonal antibodies that bind to the heterodimerized αVβ3 but not the αV or the β3 chains when not included in a heterodimer. […]"}, "[1]": {"biological_target": "T2, modified mouse integrin αVβ3 (mouse-human chimera, human β chain residues 164-202) (Mus musculus, UniProt O54890, A208T/I198L/K199E/N204D/N207T/Q196E/S226T)", "T2 sequence (O54890 26-787 Q196E/I198L/K199E/N204D/N207T/A208T/S226T)": "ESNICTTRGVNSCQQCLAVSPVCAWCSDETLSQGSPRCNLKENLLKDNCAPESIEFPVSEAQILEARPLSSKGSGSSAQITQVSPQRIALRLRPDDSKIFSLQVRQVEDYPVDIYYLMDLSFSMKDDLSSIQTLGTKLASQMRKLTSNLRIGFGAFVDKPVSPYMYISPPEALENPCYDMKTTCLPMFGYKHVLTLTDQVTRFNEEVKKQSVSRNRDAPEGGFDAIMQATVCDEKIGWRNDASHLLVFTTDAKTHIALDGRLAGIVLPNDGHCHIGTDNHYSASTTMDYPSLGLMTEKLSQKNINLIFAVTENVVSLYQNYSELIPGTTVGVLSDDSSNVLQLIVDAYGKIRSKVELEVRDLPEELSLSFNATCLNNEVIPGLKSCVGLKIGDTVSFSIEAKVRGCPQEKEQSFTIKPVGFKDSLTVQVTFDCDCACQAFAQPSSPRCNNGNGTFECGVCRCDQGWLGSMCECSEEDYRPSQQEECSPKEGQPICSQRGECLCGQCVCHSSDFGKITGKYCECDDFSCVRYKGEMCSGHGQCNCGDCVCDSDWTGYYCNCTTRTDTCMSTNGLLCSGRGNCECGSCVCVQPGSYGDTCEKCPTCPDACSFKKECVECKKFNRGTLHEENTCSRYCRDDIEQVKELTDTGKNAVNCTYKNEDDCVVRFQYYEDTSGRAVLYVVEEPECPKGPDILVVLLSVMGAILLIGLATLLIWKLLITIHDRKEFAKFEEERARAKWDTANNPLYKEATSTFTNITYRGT", "T2 sequence (P43406 31-885 partner)": "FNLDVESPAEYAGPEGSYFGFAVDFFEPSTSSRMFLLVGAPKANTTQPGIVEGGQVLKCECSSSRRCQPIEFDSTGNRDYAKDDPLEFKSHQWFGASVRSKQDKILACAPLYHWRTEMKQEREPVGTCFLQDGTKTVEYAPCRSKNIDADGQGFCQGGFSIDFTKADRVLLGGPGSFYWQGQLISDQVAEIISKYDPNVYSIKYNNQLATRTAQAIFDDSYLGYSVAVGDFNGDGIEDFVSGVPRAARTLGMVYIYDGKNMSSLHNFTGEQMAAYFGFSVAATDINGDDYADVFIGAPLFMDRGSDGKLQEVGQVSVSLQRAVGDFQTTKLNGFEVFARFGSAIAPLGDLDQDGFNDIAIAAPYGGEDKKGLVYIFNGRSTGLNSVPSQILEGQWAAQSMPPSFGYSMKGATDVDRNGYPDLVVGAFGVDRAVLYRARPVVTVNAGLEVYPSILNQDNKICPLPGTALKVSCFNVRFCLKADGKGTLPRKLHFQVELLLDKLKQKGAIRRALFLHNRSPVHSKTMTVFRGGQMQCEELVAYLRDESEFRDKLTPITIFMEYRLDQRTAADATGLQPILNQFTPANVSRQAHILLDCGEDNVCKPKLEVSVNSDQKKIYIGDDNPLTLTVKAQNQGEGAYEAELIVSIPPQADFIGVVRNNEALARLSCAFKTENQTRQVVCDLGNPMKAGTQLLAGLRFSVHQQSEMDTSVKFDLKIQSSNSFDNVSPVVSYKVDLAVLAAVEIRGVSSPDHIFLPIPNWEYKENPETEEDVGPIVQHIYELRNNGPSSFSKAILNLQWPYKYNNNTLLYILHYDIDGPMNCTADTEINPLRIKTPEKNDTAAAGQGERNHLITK", "T2 sequence (P43406 887-1044 partner)": "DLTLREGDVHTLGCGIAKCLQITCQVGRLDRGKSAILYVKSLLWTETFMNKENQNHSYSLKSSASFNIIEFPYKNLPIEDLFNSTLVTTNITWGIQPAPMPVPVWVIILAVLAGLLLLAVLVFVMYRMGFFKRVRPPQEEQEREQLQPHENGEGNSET", "assay": "Antibody binding to modified mouse integrin αVβ3 carrying amino acids 164-202 of the human β chain", "settings": "mouse β chain region replaced with amino acids 164-202 of the human β chain", "source_text": "as §1, §2"}, "[2]": {"system": "integrin αVβ3 with mutated human β3 chain", "assay": "Antibody binding to integrin αVβ3 heterodimer with human β3 residues substituted with rat residues", "source_text": "as §1\nIn preferred embodiments, the amino acid substitutions are made in the β3 subunit. In certain embodiments, human β3 residues are substituted with rat residues as described in Table 2. […] Such substitutions preferred examples but not limiting. Such substituted subunits are merely exemplary and not limiting. Any integrin αVβ3 regions identified to be responsible for antibody binding can be altered with substituted, deleted or inserted residues to characterize binding specificity of various antibodies and to screen for antibodies with the same a similar binding specificity.\nIn addition, the invention provides methods for identifying monoclonal antibodies that bind to the heterodimerized αVβ3 but not the αV or the β3 chains when not included in a heterodimer. […] The antibodies identified from such screening methods can be useful for the prevention, management and treatment of integrin αVβ3-mediated diseases and disorders, including but not limited to inflammatory diseases, autoimmune disorders, disorders associated with aberrant expression and/or activity of integrin αvβ3, disorders associated with abnormal bone metabolism, disorders associated with aberrant angiogenesis and cancers, or a condition or symptom associated therewith. It is also contemplated that such antibodies can be used in the methods and compositions contemplated by the present invention. […]"}}}
{"molecule": "VITAXIN®: humanized monoclonal antibody MEDI-522 (MedImmune) that immunospecifically binds to integrin αVβ3; human IgG1 subclass (antibody, chains of the INN, looked up, V domains shown) VH: QVQLVESGGGVVQPGRSLRLSCAASGFTFSSYDMSWVRQAPGKGLEWVAKVSSGGGSTYYLDTVQGRFTISRDNSKNTLYLQMNSLRAEDTAVYYCARHLHGSFASWGQGTTVTVSS VL: EIVLTQSPATLSLSPGERATLSCQASQSISNFLHWYQQRPGQAPRLLIRYRSQSISGIPARFSGSGSGTDFTLTISSLEPEDFAVYYCQQSGSWPLTFGGGTKVEIK", "values": [{"measurement": "binding to mouse integrin αVβ3", "setting": "mouse integrin αVβ3", "result": "do not bind"}, {"measurement": "binding to modified mouse integrin αVβ3", "setting": "[1]", "result": "do bind"}, {"measurement": "effect of β3 mutation on antibody binding to integrin αVβ3", "setting": "[2]; Mutation A: Glu to Gln at position 171 (E171Q)", "result": "disrupts binding"}, {"measurement": "effect of β3 mutation on antibody binding to integrin αVβ3", "setting": "[2]; Mutation B: Leu and Glu to Ile and Lys at positions 173 and 174 (L173I, E174K)", "result": "disrupt binding"}, {"measurement": "effect of β3 mutation on antibody binding to integrin αVβ3", "setting": "[2]; Mutations A and C combined (three substituted residues)", "result": "disrupts binding"}, {"measurement": "effect of β3 mutation on antibody binding to the integrin αVβ3 heterodimer", "setting": "[2]; mutation of residues 171, 173 and/or 174 of the human β3 chain", "result": "disrupt binding"}]}
